{
  "source": "the DeepSol protein solubility set",
  "data": [
    {"assay": "soluble on expression in E. coli; label from the status in PepcDB or PDB records", "values": [
      {"sequence": "MKRPDYRTLQALDAVIRERGFERAAQKLCITQSAVSQRIKQLENMFGQPLLVRTVPPRPTEQGQKLLALLRQVELLEEEWLGDEQTGSTPLLLSLAVNADSLATWLLPALAPVLADSPIRLNLQVEDETRTQERLRRGEVVGAVSIQHQALPSCLVDKLGALDYLFVSSKPFAEKYFPNGVTRSALLKAPVVAFDHLDDMHQAFLQQNFDLPPGSVPCHIVNSSEAFVQLARQGTTCCMIPHLQIEKELASGELIDLTPGLFQRRMLYWHRFAPESRMMRKVTDALLDYGHKVLRQD", "soluble on expression in E. coli": "soluble"},
      {"sequence": "MVTAEIRLYITEGEVEDYRVFLERLEQSGLEWRPATPEDADAVIVLAGLWGTRRDEILGAVDLARKSSKPIITVRPYGLENVPPELEAVSSEVVGWNPHCIRDALEDALDVI", "soluble on expression in E. coli": "not soluble"},
      {"sequence": "MAHHHHHHMKKNFPQSYNFFPLTWILPNEISDFKNYFKKESGSKTYIVKLKNSCQGKGIYLTKTLDNINKYDSCVIQKYIHKPLLINGLKFDIRLYVLVTGCDPLRIFLHEDGLVRFSIEKYKLPKSKNLKQVNMHLTNFSINKKSDKFENSPNPDDATMGHKRSWKAFLQKLKEEGLPMDSVMKRIEHMIVKTICSIQPELKHYYNSAHISDYSNSMCFEVLGFDILLDYKLKPWLLEVNHSPSFATSSLVDEKVKYAVIRDTLNMLYMHSKYRHIHIQEYLNLQKFRKKYSDVL", "soluble on expression in E. coli": "not soluble"},
      {"sequence": "MSTSKRPYKILLRKVESKEENKKDTNETKKKEEESKHYEDRHYRKNDIKHYEENEKTIKSKMHYNSRNRYYDKYSMSYSRYDEKLNKQHSSEKKKDVLVPLLEQASINIKKKKIIIRKLPPTLTEENFFDSFSNNIKDELDYYYFVNGSASKDSSNDIIYSRMYLSFKDDMKTDEFIRTQNGKFFYDLNGVKYKALVSYAPNQTLIKKNKPDSRNNTLESDEYFLKCCEEMNNPVQRVKKDIDYSELINVQTENGAILSPIVIELRSKKKK", "soluble on expression in E. coli": "not soluble"},
      {"sequence": "MGSDKIHHHHHHAVNCYVGNYYRADSIAEAAIDSDREVAVTIEKKDKRIQATQYDLKLKNYTITFAPQDKEKATKALIFYPGGRVQYTAYAPLMHELAKNNFVCILVHMPGNLAVLDQNAADGIIEKYKEIYPSIQEWYMGGHSLGGAMAAEYVAKHVDEFDGLYLFAAYSTADLSDSDLRVFSVYGSEDGVLDMDKYRKYRSNLPEDTYEYVIDGGCHSYFGSYGLQKGDGTPDVAFEEQIEMTVDFITYNSK", "soluble on expression in E. coli": "not soluble"},
      {"sequence": "MIASSPIDAAALRASVAAALDPSTAVATLARFDTHAPRLLDALSTLYGDHADYVTWLPQWLSALGVVAQARPAALRHLDDSRAPGWFGQQDMLGYSAYVDRFAGTLRGVAERVPYLQELGVRYLHLLPFLRARAGDNDGGFAVSDYGQVEPALGSNDDLVALTARLRAANISLCADFVLNHTADDHAWAQAARAGDTRYLDYYHHFADRNAPDQYDTTLVQVFPQTAPGNFTWVDETRQWMWTTFYPYQWDLNWSNPAVFGEMALAMLELANLGVEAFRLDSTAYLWKRPGTNCMNQPEAHTILVALRAVADIVAPSVVMKAEAIVPMAELPPYFGSGVQRGHECHLAYHSTLMAAGWSALALQRGDILQDVIAHSPPLPPNCAWLSYVRCHDDIGWNVLQHEAAGTAAQPPFSLREVAQFYANAVPGSYARGESFQSSGDGVHGTNGMSAALVGVQAAHEHADAAAAARAVDRLVLLYAVSLAMPGVPLIYMGDELALPNDTAYLDDAQRRHEGRWLHRPAMAWELAAQRHDASTLAGTVYTRLRALIRLRAGLPALAATQSLGSVALGDARLFALTRGDSFLAVHNFSDVPLPVDLTQTGHALWAVLDTDGTGDAPEPHTELLLPAYGVRWLQRR", "soluble on expression in E. coli": "soluble"},
      {"sequence": "GPGSMRTCASTLSHLCAQGPLRGSMHVTLHALVRFCAHVASSLRSGQATLHPSLPLRFSHPLRLPSARFSHSTGVLSLALPVMQHTHIHTLTHTYSSIYRRFTARLRLSDSTCYTQGSTHTHTQSICFSIHSPLSLSLSETSALLGAPSSSSFSATSPAYRVRTASSCNRLPDGHKHFRKYIYIYIYIYWALSRISLGASADLPWNVRIHRVRMTATEYQKLIGERRLSPEEEENLVQRLYFRQMKLTEQREEERRAILERTRAQMQKHISKDEEGRLVSRMYDQQVERFANSKAERDRKLEEEMHKNDKKMDSSEIDDQVRRIYEEELKRSQARREELYSRYMPTAEAKKIGKKELKGCVERLSHVDWEKRDEELFKKYVYPYDPKTTKISRDDEQAMANRLSTTKGAG", "soluble on expression in E. coli": "not soluble"},
      {"sequence": "MSEHLTLPTNKPQVTHFSSGPCAKHPGWSVSNLENACLGRSHRSEDGKAKLSEVIERSKQILGLPADYRLGIVPASDTGAVEMALWSLLGQRPLDILAWESFGQEWVKDVVDELKLPDVRLLKAPYGGLPNLDEVDFSHDVVFLWNGTTSGVRVPNGDWIKDDRQGLTICDATSAVFAMDIPWEKIDVLTYSWQKVLGGEAQHGVIVLSPRAVERLQTYEPAWPIPKIFRLSQKGKLIEGIFKGDTINTPSMLCVEDALDALIWAESVGGLPGLISRSEANLAAIAQWVKQSNWADFLAEKPETRSCTSICLKIVDAAFASLSAEDQGKFAKKLAKLLEKQQVAYDIAPYRAAPPGLRIWGGATVETADIEALLPWLDWAYANVKAEFVPVA", "soluble on expression in E. coli": "soluble"},
      {"sequence": "SLEQENMEQRVKHESEELLQKFKSTSNLDELIESLGGLGEEAQREAGESLEALKRPVKEMMNDENNHLPQKLHQLKEVVSQLEPDHLKQGAVKKFVNKILGRSPMEQYAQRYKTVEAQVENIIEALLTGKDKLQEDTLMLTQLKGVARERISHLEEQIEMGKQLNAMLESEMTSEEWKNNPTALKKGQQKVISRIKNMSQAIMVLQQSLASVDLIVENNEKLEEAIFNAITMTKNIITVTASIQLALGNQKKVINAVQNVNEATENMLLSNAEMLKKNTEDTLKTLEEPAIAIESFRKAYQDVFAAIELTEQSNERIVSSGKKFIAELDTLNKEMKTKLIESKSTSSS", "soluble on expression in E. coli": "soluble"},
      {"sequence": "SESDSEMVPFPQLPMPIENNYRACTIPYRFPSDDPKKATPNEISWINVFANSIPSFKKRAESDITVPDAPARAEKFAERYAGILEDLKKDPESHGGPPDGILLCRLREQVLRELGFRDIFKKVKDEENAKAISLFPQVVSLSDAIEDDGKRLENLVRGIFAGNIFDLGSAQLAEVFSRDGMSFLASCQNLVPRPWVIDDLENFQAKWINKSWKKAVIFVDNSGADIILGILPFARELLRRGAQVVLAANELPSINDITCTELTEILSQLKDENGQLLGVDTSKLLIANSGNDLPVIDLSRVSQELAYLSSDADLVIVEGMGRGIETNLYAQFKCDSLKIGMVKHLEVAEFLGGRLYDCVFKFNEVQS", "soluble on expression in E. coli": "soluble"},
      {"sequence": "MTVNKITYQNLQEEVYKLTLESGLNVYLIPKPSFKETVGVLTANFGSLHTKYTRNGCVEHYPAGIAHFLEHKLFELDKGQDAATQFTKYGAESNAFTTFDKTSFYFSTISHITNCLDILLDFVLTTNFTEESITKEKDIIKQEIEMYQDDPEYRLYQGVLSNLYPNSPLAFDIAGDYQSISQITLTDLQENHKDFYQLSNMNLVLVGQFSPQEIITYLQKNSHFTSYSQNIDRDSISLEPVIKNNSCHMTVTKPKLAIGYRKSNHMIHGSYLKEKIGLQLFFAMLLGWTSTINQDWYESGQIDDSFDIEIEVHPDFECVIISLDTTEPIAFSTQLRLLLKNALQSSDLTESHLKNVKRELYGDFLRSLDSIENLAMQFVTYLYDGKTMYLDLPSIVEELDLEDVITIGKDFLDNADTSDFVIFPKSS", "soluble on expression in E. coli": "not soluble"},
      {"sequence": "MGSDKIHHHHHHMFLYELFKEQRKLYNFTQEEFYEGIFKKRAASSFEVHNTHDLKVKDLPVLSDRSMMSILEIIHYAKEEFISPYDEDLNSLFDIFQNNTEKENKDYIYKLYKKSIELKEHSIIYWNLYLIIKIQCSEYDSRIVPTDSQDLSELKKMILSKQKFTLYDYKIVTNLSLVFSYKELQPFLSSLFPLDSNAPTVTSEAAYYLLENITTKLVQNRDFESCTEVLNIYNDLLQKFPSYKYKLNYLITYNLVGYFLTNNMDSLNNSIKYVDLLGDLENVELAKLMKDNIYLMISKKNNGSMSKPDTLLTKENNHIKLNEKKITKRLE", "soluble on expression in E. coli": "not soluble"},
      {"sequence": "MLDANKLQQAVDQAYTQFHSLNGGQNADYIPFLANVPGQLAAVAIVTCDGNVYSAGDSDYRFALESISKVCTLALALEDVGPQAVQDKIGADPTGLPFNSVIALELHGGKPLSPLVNAGAIATTSLINAENVEQRWQRILHIQQQLAGEQVALSDEVNQSEQTTNFHNRAIAWLLYSAGYLYCDAMEACDVYTRQCSTLLNTIELATLGATLAAGGVNPLTHKRVLQADNVPYILAEMMMEGLYGRSGDWAYRVGLPGKSGVGGGILAVVPGVMGIAAFSPPLDEDGNSVRGQKMVASVAKQLGYNVFKG", "soluble on expression in E. coli": "soluble"},
      {"sequence": "MGSDKIHHHHHHMPGFSADLDCVPGSIRSQVEENYRVWRRAWITSSAQPAVNSSGRALRLQPRHTAQRRTASESGADAGGELNGITIPTTATTRYAERRGISIVRTYADEGKSGLRIDGRRALQQLIKDVEGGTADFQIILVYDVSRWGRFQDADESAYYECICRRAGIQVAYCAEQFENDGSPVSTIVKGVKRAMAREYSRELSAKVFAGQCRLIELGYRQGSPAGFGLRRVLIDQQGSSKGMLARGEQKSLQTDRVVLMPGPGDEIRIVHQIYRWFIDEGLGDSEIAMRLNSIRVRTDFDRYWTRATVHEVLTNEKYIGNNVYNRISFKLKKLRVVNTPDMWDQKGRRV", "soluble on expression in E. coli": "not soluble"},
      {"sequence": "EVVVTGYGDFKKATYTGSASVLNTDKLESLPVVSVAQMMEANIPGLSSVASSSQPGSKATVRVRGIASMNASTEPLYVLDGVPVASRDMSGLSANASAGGLGLIETLNPADIESITVLKDAASASLYGAKGSNGVILI", "soluble on expression in E. coli": "not soluble"},
      {"sequence": "GPGSMRSAQLPSKLSSAAGSCKHWVVSVPNSSESYRCFCSLIDRALQPGTCHPYSVRFRLEHLLPADWSLLLGWCRRLTSCGGSFTYTSPGDISEQTESVGAVDDSEGHPAVVNAAFMHVVERCHGDFVPNNMIYHELQRRYTVYAPASPPPPEGPEDFTSFLGALQDSVCDGCLASLSEGDGNVGEDPLASQVPSLEATKHNQKVLGVGAAASMESEAHRQQGELLFNFFPHRVVVSDGIPCHSTHFVVMVNLKPVVPWHLMVVPIRCVGTLSALSAAEMEDLGHMIHLTISVLSHVLVKPAVTGTGDTSSNGGSRVERGCSPHSIGSPVPASVVGGGGFSIAIQQGELAGQTVPHLHVHVIPFDPRGKLAGEPEDEEQQRRQPPRTGAQMRKETEFLRPHFVRLANEKNMRGICATCG", "soluble on expression in E. coli": "not soluble"},
      {"sequence": "MSLPNCLQCQSEYVYEDGLLLICPMCAFEWTPGEEATEEEGLVVLDSNGVRLSDGDTITVVKDLKVKGAPKDLKQGTRVKNIRLVEGDHNIDCKIDGFGAMKLKSEFVKKI", "soluble on expression in E. coli": "not soluble"},
      {"sequence": "MAHHHHHHMGISEGFEGIGVYAGSISAFMKPAHEKADATFVTNGDGVLPCEQPGSQAAIQAAQADYMASVAMTGKLPSPPHAGAEAHLHAHMQASHTSSLPRRAPPAALNVTPRNPPMSLAADPKLLSSPTSASAARPAVAAAAAAIGVTARPATSSLSSSPRPQSHIAKGASRVTADGSRIMRNKEATDYYRALPQNELSKEDMWRRINEASADRAEATGTAIGSAEVDYIKLEDELRDFDLFHYRIGEMAYPDQAMRRDYYALWNLAMSLNKARWSMLEVHSQRGMKTTGAGMKLIFWKESVGAVMEKRKMCTGEFTDSHPVLRPFAAAVERNPHMTKAFVRGFTDARLRVIQQPGNVQQLFDHFDKFYGYFFNSLLEVTHIKDEATEHLMTHVGRATGLTNHCVMFWKKYARLGFTMLPADLCADNHVNLGLLKNIPLASRDRAVRKVLFDVMCIVKDEMLHAQKCAKDVPPKAWPIVMECLYANYYLGFLQRRDFNVSAMFADHNIENAGFTWYRLKKRWEWERYQSIERLVDEAAPLPYINTCFTHRGSHYKMASGVGSGAPQAQRKRS", "soluble on expression in E. coli": "not soluble"},
      {"sequence": "MGRGSFTQIDTPDQVTERMRALLVKLESPAVTDLTATFSEPGIDVTPARLPDLYRGEPLTLSARMGQARGTLTLTGRIGGQPWQTQLHLDAAQDGTGIGKLWARAKIAEAETARLTGGLTAEAADAAILRLALDHGLTTRLTSLVAVDATPRRPAGMRLASTELPLNLPAGWDFETVFGTQDELEHHHHHH", "soluble on expression in E. coli": "not soluble"}
    ]}
  ]
}
